Biological target: human CD4 on cells (MT-2, MT-4 cells; mouse SR.hCD4 cells transfected with human CD4) (human) (UniProt P01730)
Test: cell-based or functional assay

synthetic soluble multiple-branched peptide (MBP) corresponding to amino acids 51-74 of CD38 (CD3851-74 MBP)
EC50, inhibition of HIV-1IIIB infection of MT-4 cells (p24 ELISA, day 3): 12 nM
EC90, inhibition of HIV-1IIIB infection of MT-4 cells (p24 ELISA, day 3): 75 nM

Source: patent US20040116653A1
